{
  "source": "the supplement of paper PMC7125110",
  "parents": {"B1": {"name": "glmS ribozyme (parent)", "chain": "AUAAAAGCGCCAGAACUACAGAAAUGUAGUUGACGAGGAGGAGGUUUAUCGAAUUUUCGGCGGAUGCCUCCAAA"}},
  "conditions_in_all_cases": "with glucosamine-6-phosphate",
  "key": {"[1]": {"variants_of": "B1", "assay": "kcat; higher = faster cleavage; RNA array", "summary_of_the_method": "(§1)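 A hybridised Cy3 probe tracked barcoded ribozyme variants, transcribed in situ by E. coli RNA polymerase on sequenced MiSeq chips, at 37 °C. The variants received 40 μM to 10 mM glucosamine-6-phosphate in HEPES/KCl/Mg(OAc)2 buffer. kobs came from decay fits and kcat and KM from weighted Michaelis–Menten fits.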"}, "[2]": {"variants_of": "B1", "assay": "KM; higher = weaker cofactor use; RNA array", "summary_of_the_method": "as §1"}, "[3]": {"variants_of": "B1", "assay": "self-cleavage kobs at 640 uM GlcN6P; higher = faster cleavage; RNA array", "summary_of_the_method": "as §1"}, "[4]": {"variants_of": "B1", "assay": "self-cleavage kobs at 2500 uM GlcN6P; higher = faster cleavage; RNA array", "summary_of_the_method": "as §1"}, "[5]": {"variants_of": "B1", "assay": "self-cleavage kobs at 10000 uM GlcN6P; higher = faster cleavage; RNA array", "summary_of_the_method": "as §1"}, "[6]": {"variants_of": "B1", "assay": "self-cleavage kobs at 40 uM GlcN6P; higher = faster cleavage; RNA array", "summary_of_the_method": "as §1"}, "[7]": {"variants_of": "B1", "assay": "self-cleavage kobs at 160 uM GlcN6P; higher = faster cleavage; RNA array", "summary_of_the_method": "as §1"}},
  "note": "± gives the standard error. For some assays here: Variants at the floor of the assay were thinned out.",
  "data": [
    {"variant": "C67G C70U", "values": [
      {"measurement": "kcat", "setting": "[1]", "result": "0.000163 ± 2.9e-06", "unit": "s⁻¹"},
      {"measurement": "KM", "setting": "[2]", "result": "1750 ± 88", "unit": "µM"},
      {"measurement": "self-cleavage kobs at 640 uM GlcN6P", "setting": "[3]", "result": "4.24e-05 ± 6e-06", "unit": "s⁻¹"},
      {"measurement": "self-cleavage kobs at 2500 uM GlcN6P", "setting": "[4]", "result": "9.79e-05 ± 8.3e-06", "unit": "s⁻¹"},
      {"measurement": "self-cleavage kobs at 10000 uM GlcN6P", "setting": "[5]", "result": "0.000137 ± 8.4e-06", "unit": "s⁻¹"}
    ]},
    {"variant": "G44U U56C", "values": [
      {"measurement": "KM", "setting": "[2]", "result": "4890 ± 1500", "unit": "µM"}
    ]},
    {"variant": "A14G U47A C50A", "values": [
      {"measurement": "self-cleavage kobs at 40 uM GlcN6P", "setting": "[6]", "result": "< 1e-05", "unit": "s⁻¹"}
    ]},
    {"variant": "A14U U56A", "values": [
      {"measurement": "kcat", "setting": "[1]", "result": "0.00382 ± 0.0017", "unit": "s⁻¹"},
      {"measurement": "self-cleavage kobs at 40 uM GlcN6P", "setting": "[6]", "result": "0.000146 ± 3.2e-05", "unit": "s⁻¹"},
      {"measurement": "self-cleavage kobs at 160 uM GlcN6P", "setting": "[7]", "result": "0.00029 ± 4.9e-05", "unit": "s⁻¹"},
      {"measurement": "self-cleavage kobs at 640 uM GlcN6P", "setting": "[3]", "result": "0.000692 ± 0.00012", "unit": "s⁻¹"},
      {"measurement": "self-cleavage kobs at 2500 uM GlcN6P", "setting": "[4]", "result": "0.00186 ± 0.00034", "unit": "s⁻¹"},
      {"measurement": "self-cleavage kobs at 10000 uM GlcN6P", "setting": "[5]", "result": "0.00407 ± 0.00084", "unit": "s⁻¹"}
    ]},
    {"variant": "U31G C34U G59A", "values": [
      {"measurement": "self-cleavage kobs at 40 uM GlcN6P", "setting": "[6]", "result": "< 1e-05", "unit": "s⁻¹"},
      {"measurement": "self-cleavage kobs at 640 uM GlcN6P", "setting": "[3]", "result": "< 1e-05", "unit": "s⁻¹"},
      {"measurement": "self-cleavage kobs at 2500 uM GlcN6P", "setting": "[4]", "result": "< 1e-05", "unit": "s⁻¹"},
      {"measurement": "self-cleavage kobs at 10000 uM GlcN6P", "setting": "[5]", "result": "< 1e-05", "unit": "s⁻¹"}
    ]},
    {"variant": "C8A G13A", "values": [
      {"measurement": "self-cleavage kobs at 40 uM GlcN6P", "setting": "[6]", "result": "< 1e-05", "unit": "s⁻¹"},
      {"measurement": "self-cleavage kobs at 160 uM GlcN6P", "setting": "[7]", "result": "< 1e-05", "unit": "s⁻¹"},
      {"measurement": "self-cleavage kobs at 640 uM GlcN6P", "setting": "[3]", "result": "< 1e-05", "unit": "s⁻¹"},
      {"measurement": "self-cleavage kobs at 2500 uM GlcN6P", "setting": "[4]", "result": "< 1e-05", "unit": "s⁻¹"},
      {"measurement": "self-cleavage kobs at 10000 uM GlcN6P", "setting": "[5]", "result": "< 1e-05", "unit": "s⁻¹"}
    ]},
    {"variant": "C10G G13A", "values": [
      {"measurement": "self-cleavage kobs at 40 uM GlcN6P", "setting": "[6]", "result": "< 1e-05", "unit": "s⁻¹"},
      {"measurement": "self-cleavage kobs at 160 uM GlcN6P", "setting": "[7]", "result": "< 1e-05", "unit": "s⁻¹"},
      {"measurement": "self-cleavage kobs at 640 uM GlcN6P", "setting": "[3]", "result": "< 1e-05", "unit": "s⁻¹"}
    ]},
    {"variant": "A52U G59A C68G", "values": [
      {"measurement": "kcat", "setting": "[1]", "result": "< 1e-05", "unit": "s⁻¹"}
    ]},
    {"variant": "G35U G62C", "values": [
      {"measurement": "self-cleavage kobs at 40 uM GlcN6P", "setting": "[6]", "result": "< 1e-05", "unit": "s⁻¹"},
      {"measurement": "self-cleavage kobs at 160 uM GlcN6P", "setting": "[7]", "result": "< 1e-05", "unit": "s⁻¹"},
      {"measurement": "self-cleavage kobs at 640 uM GlcN6P", "setting": "[3]", "result": "< 1e-05", "unit": "s⁻¹"},
      {"measurement": "self-cleavage kobs at 2500 uM GlcN6P", "setting": "[4]", "result": "< 1e-05", "unit": "s⁻¹"},
      {"measurement": "self-cleavage kobs at 10000 uM GlcN6P", "setting": "[5]", "result": "< 1e-05", "unit": "s⁻¹"}
    ]},
    {"variant": "U46G U65A", "values": [
      {"measurement": "kcat", "setting": "[1]", "result": "0.00378 ± 0.00067", "unit": "s⁻¹"},
      {"measurement": "KM", "setting": "[2]", "result": "2420 ± 650", "unit": "µM"},
      {"measurement": "self-cleavage kobs at 40 uM GlcN6P", "setting": "[6]", "result": "8.18e-05 ± 1.7e-05", "unit": "s⁻¹"},
      {"measurement": "self-cleavage kobs at 160 uM GlcN6P", "setting": "[7]", "result": "0.000198 ± 4.8e-05", "unit": "s⁻¹"},
      {"measurement": "self-cleavage kobs at 640 uM GlcN6P", "setting": "[3]", "result": "0.000703 ± 0.00015", "unit": "s⁻¹"},
      {"measurement": "self-cleavage kobs at 2500 uM GlcN6P", "setting": "[4]", "result": "0.00212 ± 0.00033", "unit": "s⁻¹"},
      {"measurement": "self-cleavage kobs at 10000 uM GlcN6P", "setting": "[5]", "result": "0.00296 ± 0.00047", "unit": "s⁻¹"}
    ]},
    {"variant": "G7U G59U", "values": [
      {"measurement": "self-cleavage kobs at 40 uM GlcN6P", "setting": "[6]", "result": "< 1e-05", "unit": "s⁻¹"},
      {"measurement": "self-cleavage kobs at 160 uM GlcN6P", "setting": "[7]", "result": "< 1e-05", "unit": "s⁻¹"},
      {"measurement": "self-cleavage kobs at 2500 uM GlcN6P", "setting": "[4]", "result": "< 1e-05", "unit": "s⁻¹"},
      {"measurement": "self-cleavage kobs at 10000 uM GlcN6P", "setting": "[5]", "result": "< 1e-05", "unit": "s⁻¹"}
    ]},
    {"variant": "G40U G44U", "values": [
      {"measurement": "self-cleavage kobs at 40 uM GlcN6P", "setting": "[6]", "result": "< 1e-05", "unit": "s⁻¹"},
      {"measurement": "self-cleavage kobs at 160 uM GlcN6P", "setting": "[7]", "result": "< 1e-05", "unit": "s⁻¹"},
      {"measurement": "self-cleavage kobs at 640 uM GlcN6P", "setting": "[3]", "result": "< 1e-05", "unit": "s⁻¹"}
    ]},
    {"variant": "U46G A64C", "values": [
      {"measurement": "kcat", "setting": "[1]", "result": "1.9e-05 ± 5.9e-07", "unit": "s⁻¹"},
      {"measurement": "KM", "setting": "[2]", "result": "227 ± 47", "unit": "µM"},
      {"measurement": "self-cleavage kobs at 40 uM GlcN6P", "setting": "[6]", "result": "< 1e-05", "unit": "s⁻¹"}
    ]},
    {"variant": "A6G U57C C70A C71U", "values": [
      {"measurement": "self-cleavage kobs at 40 uM GlcN6P", "setting": "[6]", "result": "< 1e-05", "unit": "s⁻¹"},
      {"measurement": "self-cleavage kobs at 160 uM GlcN6P", "setting": "[7]", "result": "< 1e-05", "unit": "s⁻¹"}
    ]},
    {"variant": "C70U C71G", "values": [
      {"measurement": "kcat", "setting": "[1]", "result": "0.000124 ± 1e-05", "unit": "s⁻¹"},
      {"measurement": "KM", "setting": "[2]", "result": "242 ± 98", "unit": "µM"},
      {"measurement": "self-cleavage kobs at 160 uM GlcN6P", "setting": "[7]", "result": "7e-05 ± 1.3e-05", "unit": "s⁻¹"},
      {"measurement": "self-cleavage kobs at 640 uM GlcN6P", "setting": "[3]", "result": "8.39e-05 ± 8.3e-06", "unit": "s⁻¹"},
      {"measurement": "self-cleavage kobs at 2500 uM GlcN6P", "setting": "[4]", "result": "0.000118 ± 9.3e-06", "unit": "s⁻¹"},
      {"measurement": "self-cleavage kobs at 10000 uM GlcN6P", "setting": "[5]", "result": "0.00012 ± 1.1e-05", "unit": "s⁻¹"}
    ]},
    {"variant": "G32A A42U C70A", "values": [
      {"measurement": "kcat", "setting": "[1]", "result": "< 1e-05", "unit": "s⁻¹"},
      {"measurement": "self-cleavage kobs at 40 uM GlcN6P", "setting": "[6]", "result": "< 1e-05", "unit": "s⁻¹"},
      {"measurement": "self-cleavage kobs at 160 uM GlcN6P", "setting": "[7]", "result": "< 1e-05", "unit": "s⁻¹"},
      {"measurement": "self-cleavage kobs at 640 uM GlcN6P", "setting": "[3]", "result": "< 1e-05", "unit": "s⁻¹"}
    ]},
    {"variant": "A39C U49G", "values": [
      {"measurement": "self-cleavage kobs at 40 uM GlcN6P", "setting": "[6]", "result": "< 1e-05", "unit": "s⁻¹"},
      {"measurement": "self-cleavage kobs at 160 uM GlcN6P", "setting": "[7]", "result": "< 1e-05", "unit": "s⁻¹"},
      {"measurement": "self-cleavage kobs at 2500 uM GlcN6P", "setting": "[4]", "result": "4.21e-05 ± 1.9e-05", "unit": "s⁻¹"},
      {"measurement": "self-cleavage kobs at 10000 uM GlcN6P", "setting": "[5]", "result": "6.91e-05 ± 9.5e-06", "unit": "s⁻¹"}
    ]},
    {"variant": "A12C U31A", "values": [
      {"measurement": "kcat", "setting": "[1]", "result": "0.0133 ± 0.004", "unit": "s⁻¹"},
      {"measurement": "KM", "setting": "[2]", "result": "4520 ± 1700", "unit": "µM"},
      {"measurement": "self-cleavage kobs at 40 uM GlcN6P", "setting": "[6]", "result": "0.000142 ± 1.7e-05", "unit": "s⁻¹"},
      {"measurement": "self-cleavage kobs at 160 uM GlcN6P", "setting": "[7]", "result": "0.000363 ± 7.2e-05", "unit": "s⁻¹"},
      {"measurement": "self-cleavage kobs at 640 uM GlcN6P", "setting": "[3]", "result": "0.00151 ± 0.00035", "unit": "s⁻¹"},
      {"measurement": "self-cleavage kobs at 2500 uM GlcN6P", "setting": "[4]", "result": "0.00434 ± 0.00085", "unit": "s⁻¹"},
      {"measurement": "self-cleavage kobs at 10000 uM GlcN6P", "setting": "[5]", "result": "0.00974 ± 0.0017", "unit": "s⁻¹"}
    ]}
  ]
}
